Assay results as given in patent US20170233490A1 (Hoffmann-La Roche, published 2017).
Several values for one entry are separate records, joined by “and”; a condition that tells them apart may be missing. Equal entries are not always repeated.

Experiments:
[1] = target: T1, TgSlyDΔIF; assay: ELISA, coated antigen
T1 construct: scaffold without hairpin insert, negative control
T1 chain: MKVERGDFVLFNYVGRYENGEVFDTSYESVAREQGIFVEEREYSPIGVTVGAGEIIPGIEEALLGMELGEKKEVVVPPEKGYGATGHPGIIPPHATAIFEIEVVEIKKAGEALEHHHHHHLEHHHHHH
Protocol: (§1) For the ELISA the screening an antigen down format was used. […] Hybridoma Supernatant was added to the plates and incubated for 1 h at room temperature. Bound antibody was detected with a HRP-labeled F(ab′)₂ goat anti-mouse Fcγ (Dianova) and ABTS (Roche) was used as a HRP-substrate.
(§2) As negative controls the scaffold proteins TtSlyDcas and TgSlyDΔIF were used.

[2] = target: T2, human HER2 Extracellular Domain (ECD) (human, UniProt P04626 23-652); assay: ELISA, coated antigen
T2 construct: human recombinant, 69.6 kDa; also called Her2 ECD; HER2_ECD
Protocol: as §1, §2

[3] = target: T3, TgSlyDser-Her3; assay: ELISA, coated antigen
T3 chain: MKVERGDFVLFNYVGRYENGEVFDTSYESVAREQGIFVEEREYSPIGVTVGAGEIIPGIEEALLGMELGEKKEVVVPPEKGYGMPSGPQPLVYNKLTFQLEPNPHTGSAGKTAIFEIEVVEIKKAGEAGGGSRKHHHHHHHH
Protocol: as §1, §2

[4] = target: T4, TgSlyDcys-Her3; assay: ELISA, coated antigen
T4 chain: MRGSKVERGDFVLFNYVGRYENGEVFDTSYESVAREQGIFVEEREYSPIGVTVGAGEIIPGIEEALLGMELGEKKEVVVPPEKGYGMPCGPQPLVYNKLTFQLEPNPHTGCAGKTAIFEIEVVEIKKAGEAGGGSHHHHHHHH
Protocol: as §1, §2

[5] = target: T5, TtSlyDcas; assay: ELISA, coated antigen
T5 construct: scaffold without hairpin insert, negative control
T5 chain: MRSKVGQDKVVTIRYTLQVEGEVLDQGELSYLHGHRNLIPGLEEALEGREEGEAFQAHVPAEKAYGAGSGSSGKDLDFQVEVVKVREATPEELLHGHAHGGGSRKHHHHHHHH
Protocol: as §1, §2

[6] = target: T6, TtSlyDcys-Her3; assay: ELISA, coated antigen
T6 chain: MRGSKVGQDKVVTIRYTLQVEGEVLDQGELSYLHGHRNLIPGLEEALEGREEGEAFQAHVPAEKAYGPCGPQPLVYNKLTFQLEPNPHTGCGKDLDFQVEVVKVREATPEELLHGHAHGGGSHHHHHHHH
Protocol: as §1, §2

[7] = target: T7, TtSlyDcas-Her3; assay: ELISA, coated antigen
T7 chain: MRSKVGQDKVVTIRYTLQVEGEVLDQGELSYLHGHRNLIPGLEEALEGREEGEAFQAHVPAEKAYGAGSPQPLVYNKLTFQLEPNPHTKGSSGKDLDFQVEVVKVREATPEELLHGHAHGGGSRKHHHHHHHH
Protocol: as §1, §2

[8] = target: T8, human HER3 Extracellular Domain (ECD) (human, UniProt P21860 20-643); assay: ELISA, coated antigen
T8 construct: human recombinant, 68 kDa; 'closed' conformation without ligand; also called Her3 ECD; Her-3 ECD
Protocol: as §1, §2

[9] = target: T9, human HER1 Extracellular Domain (ECD) (human, UniProt P00533 25-645); assay: ELISA, coated antigen
T9 construct: also called Her1 ECD; HER1-ECD
Protocol: as §1, §2

[10] = target: T10, HER3 ECD-HRG complex (human, UniProt P21860 20-643); assay: SPR Biacore T100, antibody captured, 25 C
T10 construct: HER3 ECD preincubated with a 3- to 6-fold molar excess of Heregulin ('open' conformation); biotinylated Her3-ECD in the ribosome display; also called HER3-ECD/HRG1β
Protocol: (§3) A CM5 series sensor was mounted into the system and was normalized in HBS-ET buffer (10 mM HEPES pH 7.4, 150 mM NaCl, 3 mM EDTA, 0.005% w/v Tween 20) according to the manufacturer's instructions. The sample buffer was the system buffer supplemented with 1 mg/ml CMD (Carboxymethyldextran, Sigma #86524). The system operated at 25° C. 6500 RU RAM-Fcγ (relative units of Fcγ-fragment RamIgG, GE Healthcare) were immobilized according to the manufacturer's instructions using EDC/NHS chemistry on all four flow cells. The sensor was deactivated using 1M ethanolamine.
(§4) The binding activity of the respective antibody against the analytes was kinetically tested. Antibodies were captured at 35 nM concentration by a 1 min injection at 5 μl/min. The flow rate was set to 100 μl/min.
(§5) Analytes in solution were injected at different concentration steps of 0 nM, 1.1 nM, 3.7 nM, 11.1 nM, 33.1 nM and 90 nM for 3.5 min. The dissociation was monitored for 15 min. Where possible, kinetic signatures were evaluated according to a Langmuir fit.

[11] = target: T11, human HER4 Extracellular Domain (ECD) (human, UniProt Q15303 26-651); assay: SPR Biacore T100, antibody captured, 25 C
T11 construct: also called Her4 ECD; HER4-ECD
T11 sequence: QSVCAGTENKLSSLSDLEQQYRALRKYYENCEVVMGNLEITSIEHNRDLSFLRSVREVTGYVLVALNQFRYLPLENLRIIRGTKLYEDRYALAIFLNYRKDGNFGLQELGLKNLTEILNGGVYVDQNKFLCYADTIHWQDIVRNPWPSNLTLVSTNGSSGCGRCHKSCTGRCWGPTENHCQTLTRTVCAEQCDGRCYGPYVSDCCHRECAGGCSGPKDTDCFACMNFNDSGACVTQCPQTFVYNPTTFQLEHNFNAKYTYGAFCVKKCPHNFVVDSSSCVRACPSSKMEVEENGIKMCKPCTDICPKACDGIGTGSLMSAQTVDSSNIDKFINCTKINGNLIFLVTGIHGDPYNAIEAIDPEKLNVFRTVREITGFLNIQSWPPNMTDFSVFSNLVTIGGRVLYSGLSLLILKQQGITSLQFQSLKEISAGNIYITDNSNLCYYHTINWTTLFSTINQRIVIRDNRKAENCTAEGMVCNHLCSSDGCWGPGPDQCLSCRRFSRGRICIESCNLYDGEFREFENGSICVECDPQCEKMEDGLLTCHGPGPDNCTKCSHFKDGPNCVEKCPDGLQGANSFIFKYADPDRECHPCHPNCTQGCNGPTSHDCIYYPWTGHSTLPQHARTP
Protocol: as §3, §4, §5

ELISA signal [1]: 0.02 | ELISA signal [2]: 0.02 | ELISA signal [3]: 3.16 | ELISA signal [4]: 3.16 | ELISA signal [5]: 0.023 | ELISA signal [6]: 3.15 | ELISA signal [7]: 3.13 | ELISA signal [8]: 3.15 | ELISA signal [9]: 0.018 | BL (Binding Late) [10]: 160 RU | Kd [10]: 4.2 nM and 4 nM | MR (Molar Ratio) [10]: 0.6 | koff [10]: 0.00027 s⁻¹ | kon [10]: 63000 M⁻¹ s⁻¹ | BL (Binding Late) [11]: 27 RU | Kd [11]: 150 nM | MR (Molar Ratio) [11]: 0.1
B1: anti-HER3/HER4 antibody M-05-74 (antibody, V domains shown)
VH: QVQLQQSGAELAKPGASVKMSCKTSGYTLTDYWIHWVKQRPGQGLEWIGYINPYTGYTESNQKFKDKATLTADKSSNTAYIQLSSLTSEDSAVYYCARPYYYGDYWGQGTTLTVSS
VL: QIVLTQSPAIMSASPGERVTITCSASSSVSYMHWFQQKPGTSPKLLIYSTSNLASGVPARFSGSGSGTSYSLTISRMEAEDAATYYCQQRSSYPFTFGSGTKLEIK
notes: murine monoclonal IgG from hybridoma (supernatant or purified), bivalent; also called M-074; M-5-74
